# Measurements from US20190270826A1 (Janssen / Centocor, published 2019).
# T1: cyno IL1RAP ECD displayed on HEK-293F cells (pDisplay) (cynomolgus monkey, UniProt P59822 21-367 (rhesus entry))
# T1 sequence: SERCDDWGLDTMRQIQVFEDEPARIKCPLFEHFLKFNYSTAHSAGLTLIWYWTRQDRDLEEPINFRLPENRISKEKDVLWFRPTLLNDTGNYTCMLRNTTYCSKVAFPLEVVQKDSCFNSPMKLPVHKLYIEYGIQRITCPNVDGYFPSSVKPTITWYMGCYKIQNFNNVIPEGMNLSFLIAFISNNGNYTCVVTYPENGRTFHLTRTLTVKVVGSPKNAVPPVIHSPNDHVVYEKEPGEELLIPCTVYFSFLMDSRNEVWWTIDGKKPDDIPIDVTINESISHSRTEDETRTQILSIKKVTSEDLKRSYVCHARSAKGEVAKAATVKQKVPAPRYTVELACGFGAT
# T2: human IL1RAP on cells (endogenous) (human, UniProt Q9NPH3 21-570)
# T2 sequence (looked up): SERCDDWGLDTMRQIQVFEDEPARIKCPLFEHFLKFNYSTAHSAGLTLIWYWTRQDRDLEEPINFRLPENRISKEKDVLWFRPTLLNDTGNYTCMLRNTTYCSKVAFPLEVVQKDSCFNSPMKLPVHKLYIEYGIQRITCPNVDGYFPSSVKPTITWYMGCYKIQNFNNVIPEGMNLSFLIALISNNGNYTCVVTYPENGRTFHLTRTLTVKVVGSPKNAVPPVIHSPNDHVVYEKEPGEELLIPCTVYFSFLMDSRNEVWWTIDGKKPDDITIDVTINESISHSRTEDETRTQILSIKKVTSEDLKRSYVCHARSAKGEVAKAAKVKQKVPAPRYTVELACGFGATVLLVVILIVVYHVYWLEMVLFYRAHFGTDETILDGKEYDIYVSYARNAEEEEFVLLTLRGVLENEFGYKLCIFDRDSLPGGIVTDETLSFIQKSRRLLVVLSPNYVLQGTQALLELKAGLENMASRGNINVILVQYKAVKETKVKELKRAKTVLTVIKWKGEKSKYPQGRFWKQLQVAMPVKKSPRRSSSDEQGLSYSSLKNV
# T3: mouse IL1RAP ECD displayed on HEK-293F cells (pDisplay) (mouse, UniProt Q61730 21-367)
# T3 sequence: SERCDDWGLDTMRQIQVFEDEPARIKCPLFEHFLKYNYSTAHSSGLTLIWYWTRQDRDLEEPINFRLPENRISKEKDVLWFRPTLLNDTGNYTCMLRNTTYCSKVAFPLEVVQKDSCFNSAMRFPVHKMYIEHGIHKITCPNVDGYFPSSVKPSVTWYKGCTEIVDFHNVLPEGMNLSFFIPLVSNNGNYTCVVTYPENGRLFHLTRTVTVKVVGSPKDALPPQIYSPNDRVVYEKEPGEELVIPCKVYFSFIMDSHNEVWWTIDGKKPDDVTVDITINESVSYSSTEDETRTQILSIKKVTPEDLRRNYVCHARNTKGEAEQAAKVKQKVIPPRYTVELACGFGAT
# B1: IC3B19 (bispecific antibody, human IgG4 S228P, kappa, lambda, F234A L235A)
# heavy 1: EVQLVESGGGLVQPGGSLRLSCAASGFTFNTYAMNWVRQAPGKGLEWVARIRSKYNNYATYYAASVKGRFTISRDDSKNSLYLQMNSLKTEDTAVYYCARHGNFGNSYVSWFAYWGQGTLVTVSSASTKGPSVFPLAPCSRSTSESTAALGCLVKDYFPEPVTVSWNSGALTSGVHTFPAVLQSSGLYSLSSVVTVPSSSLGTKTYTCNVDHKPSNTKVDKRVESKYGPPCPPCPAPEAAGGPSVFLFPPKPKDTLMISRTPEVTCVVVDVSQEDPEVQFNWYVDGVEVHNAKTKPREEQFNSTYRVVSVLTVLHQDWLNGKEYKCKVSNKGLPSSIEKTISKAKGQPREPQVYTLPPSQEEMTKNQVSLTCLVKGFYPSDIAVEWESNGQPENNYKTTPPVLDSDGSFLLYSKLTVDKSRWQEGNVFSCSVMHEALHNHYTQKSLSLSLGK
# light 1: QTVVTQEPSLTVSPGGTVTLTCRSSTGAVTTSNYANWVQQKPGQAPRGLIGGTNKRAPGTPARFSGSLLGGKAALTLSGVQPEDEAEYYCALWYSNLWVFGGGTKLTVLGQPKAAPSVTLFPPSSEELQANKATLVCLISDFYPGAVTVAWKADSSPVKAGVETTTPSKQSNNKYAASSYLSLTPEQWKSHRSYSCQVTHEGSTVEKTVAPTECS
# heavy 2: not shown
# light 2: DIQLTQSPSFLSASVGDRVTITCRASQGISSYLAWYQQKPGKAPKLLIYAASTLQSGVPSRFSGSGSGTEFTLTISSLQPEDFATYYCQQVNSYPLTFGGGTKVEIKRTVAAPSVFIFPPSDEQLKSGTASVVCLLNNFYPREAKVQWKVDNALQSGNSQESVTEQDSKDSTYSLSSTLTLSKADYEKHKVYACEVTHQGLSSPVTKSFNRGEC
# notes: IgG4-PAA, Fab arm exchange; also called IAPB57 x CD3B219; IL1RAP x CD3
# Tests used:
# [1] = target: T4, human FcγRI (human, UniProt P12314 16-292, limits assumed); test: AlphaScreen competition, human FcγRI (n=1); displaced: biotinylated control mAb B21M hIgG1 AlaAla; pH 7.2
# T4 construct: GST-tagged, on glutathione acceptor beads; also called FcγRT [sic]
# T4 sequence (P12314 16-292 limits assumed): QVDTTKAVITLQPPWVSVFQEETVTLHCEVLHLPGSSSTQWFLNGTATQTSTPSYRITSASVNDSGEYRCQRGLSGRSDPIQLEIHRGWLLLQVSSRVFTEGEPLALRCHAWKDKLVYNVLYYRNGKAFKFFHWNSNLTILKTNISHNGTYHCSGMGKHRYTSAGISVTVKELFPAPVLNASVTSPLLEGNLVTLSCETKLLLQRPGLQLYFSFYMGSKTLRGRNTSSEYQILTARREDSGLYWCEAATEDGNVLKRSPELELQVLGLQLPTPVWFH
# From the text: Measurements were made using an AlphaScreen™ assay (Amplified Luminescent Proximity Homogeneous Assay (ALPHA), PerkinElmer, Wellesley, Mass.), a bead-based luminescent proximity assay. Laser excitation of a donor bead excites oxygen, which if sufficiently close to the acceptor bead generates a cascade of chemiluminescent events, ultimately leading to fluorescence emission at 520-620 nm.
# [2] = target: T1, cyno IL1RAP ECD displayed on HEK-293F …; test: MSD cell binding, HEK-293F Cyno (clone CB8) cells displaying cyno IL1RAP ECD
# Experimental: (§1) Cells were immobilized and IL1RAP antibody samples were assayed in triplicate. Briefly, expression supernatants of purified IL1RAP antibodies were normalized to 10 μg/mL. 5000 cells per well were plated into a 384 well plate (MA6000, cat. L21XB, MSD) and allowed to adhere for 2 hr. Cells were then blocked with 20% FBS in PBS (Gibco) for 15 mins. Antibody supernatants were then added and left at RT for 1 hr. Cells were washed 3 times with PBS and a ruthenium labeled secondary antibody (Mesoscale Discovery) was then added at 2 μg/mL and incubated for 1 hour at room temperature. A further washing step was then applied and 35 μL per well of 2×MSD Read buffer T (surfactant free) was then added and incubated for 5-30 minutes for detection. Plates were then read using Sector Imager 2400 (MSD). Data was normalized to controls and graphed using GraphPad Prism Version 5. A positive binder was determined to be a hit with a signal 3× greater than parental cell line background.
# (§2) The MSD cell binding assay described in Example 4 was used to assess IL1RAP binding.
# [3] = target: T2, human IL1RAP on cells (endogenous); test: cell-based or functional assay
# [4] = target: T3, mouse IL1RAP ECD displayed on HEK-293F …; test: MSD cell binding, HEK-293F Mouse clone 5 cells displaying mouse IL1RAP ECD
# Experimental: as §1, §2
# [5] = target: T2, human IL1RAP on cells (endogenous); test: cell-based or functional assay; remark: listed apart in the source
binder,measurement,setting,value
B1,IC50 (read off the curve),[1],~90 nM
same,EC50 (read off the curve),[2],~1 µg/mL
same,"EC50, caspase area/well AUC, Calu-3 with T cells, 72 h",[3],0.716 nM
same,"EC50, caspase area/well AUC, DU145 with T cells, 72 h",[3],0.445 nM
same,"EC50, caspase area/well AUC, H196 with T cells, 72 h",[3],0.019 nM
same,"EC50, caspase area/well AUC, H226 with T cells, 72 h",[3],0.134 nM
same,"EC50, caspase area/well AUC, H716 with T cells, 72 h",[3],0.004 nM
same,"EC50, caspase area/well AUC, H1975 with T cells, 72 h",[3],0.013 nM
same,"EC50, caspase area/well AUC, H2172 with T cells, 72 h",[3],0.039 nM
same,"EC50, caspase area/well AUC, H2228 with T cells, 72 h",[3],0.043 nM
same,"EC50, caspase area/well AUC, LNCAP with T cells, 72 h",[3],0.039 nM
same,"EC50, caspase area/well AUC, PC3 with T cells, 72 h",[3],0.102 nM
same,"EC50, caspase area/well AUC, Panc0213 with T cells, 72 h",[3],0.192 nM
same,"EC50, caspase area/well AUC, Panc0327 with T cells, 72 h",[3],0.181 nM
same,"EC50, caspase area/well AUC, SKMES-1 with T cells, 72 h",[3],0.031 nM
same,"EC50, caspase area/well AUC, SW1271 with T cells, 72 h",[3],0.078 nM
same,binding result,[4],no binding (tested: 100 µg/mL)
same,"Average EC50, SKNO-1 cytotoxicity in whole blood, 24 hour",[5],1.82 nM
same,"Average EC50, SKNO-1 cytotoxicity in whole blood, 48 hour",[5],1.4 nM
same,"EC50, SKNO-1 cytotoxicity in whole blood, donor 00201, 24 hour",[5],3.58 nM
same,"EC50, SKNO-1 cytotoxicity in whole blood, donor 00201, 48 hour",[5],0.703 nM
same,"EC50, SKNO-1 cytotoxicity in whole blood, donor 00263, 24 hour",[5],1.5 nM
same,"EC50, SKNO-1 cytotoxicity in whole blood, donor 00263, 48 hour",[5],0.768 nM
same,"EC50, SKNO-1 cytotoxicity in whole blood, donor 27050, 24 hour",[5],1.38 nM
same,"EC50, SKNO-1 cytotoxicity in whole blood, donor 27050, 48 hour",[5],3.36 nM
same,"EC50, SKNO-1 cytotoxicity in whole blood, donor 27060, 24 hour",[5],1.88 nM
same,"EC50, SKNO-1 cytotoxicity in whole blood, donor 27060, 48 hour",[5],1.3 nM
same,"EC50, SKNO-1 cytotoxicity in whole blood, donor 27067, 24 hour",[5],0.912 nM
same,"EC50, SKNO-1 cytotoxicity in whole blood, donor 27067, 48 hour",[5],0.647 nM
same,"EC50, SKNO-1 cytotoxicity in whole blood, donor 32771, 24 hour",[5],1.68 nM
same,"EC50, SKNO-1 cytotoxicity in whole blood, donor 32782, 48 hour",[5],1.62 nM
